Data from article PMC10743992, “A Transient π–π or Cation–π Interaction between Degron and Degrader Dual Residues: A Key Step for the Substrate Recognition and Discrimination in the Processive Degradation of SulA by ClpYQ (HslUV) Protease in Escherichia coli” (International Journal of Molecular Sciences, 2023).

T1: His (6x)-tagged ClpY (Escherichia coli, UniProt P0A6H5 1-443)
T1 construct: ClpY (HslU) ATPase/unfoldase of Escherichia coli, wild type, cloned in pET21a at NdeI-HindIII; Used as the 6-oligomer (1.3 uM) with 5 mM ATP; also called His-ClpY; HslU
T1 sequence (looked up): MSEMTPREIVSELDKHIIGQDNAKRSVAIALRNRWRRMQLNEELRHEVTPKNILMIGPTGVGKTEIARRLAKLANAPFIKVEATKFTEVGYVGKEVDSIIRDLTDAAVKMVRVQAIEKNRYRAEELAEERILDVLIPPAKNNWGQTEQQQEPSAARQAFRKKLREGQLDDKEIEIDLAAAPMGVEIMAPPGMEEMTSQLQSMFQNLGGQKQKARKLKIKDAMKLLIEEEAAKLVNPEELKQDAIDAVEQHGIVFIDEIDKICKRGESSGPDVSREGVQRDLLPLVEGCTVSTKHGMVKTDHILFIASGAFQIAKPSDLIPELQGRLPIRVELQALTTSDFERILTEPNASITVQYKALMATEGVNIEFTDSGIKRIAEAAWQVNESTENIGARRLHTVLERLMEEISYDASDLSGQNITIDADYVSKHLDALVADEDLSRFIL


Molecular target: T1, His (6x)-tagged ClpY
Assay: pull-down; His-ClpY (6-oligomer, 1.3 uM) held on cobalt resin; MBP-SulA or variant 7.8 uM; 50 mM HEPES pH 7.4, 150 mM NaCl, 5% glycerol, 5 mM MgCl2, 0.04% Triton X-100, 5 mM ATP, 41 °C 3 h, then resin at 4 °C; 10 washes with 300 mM NaCl; SDS-PAGE, Coomassie
Settings: both partners purified

| binding result | Binder |
| --- | --- |
| binds | MBP-SulA (natural protein, Escherichia coli, UniProt P0AFZ5 1-169, looked up, also called wild-type MBP-SulA; source: E. coli BL21 (DE3), purified (amylose resin)) MYTSGYAHRSSSFSSAASKIARVSTENTTAGLISEVVYREDQPMMTQLLLLPLLQQLGQQSRWQLWLTPQQKLSREWVQASGLPLTKVMQISQLSPCHTVESMVRALRTGNYSVVIGWLADDLTEEEHAELVDAANEGNAMGFIMRPVSASSHATRQLSGLKIHSNLYH |
| binds | MBP-SulA^F143K (natural protein, Escherichia coli, UniProt P0AFZ5 1-169, looked up, SulA of Escherichia coli with F143K, cloned in pMal-c2X at EcoRI-BamHI; source: E. coli BL21 (DE3), purified (amylose resin)) MYTSGYAHRSSSFSSAASKIARVSTENTTAGLISEVVYREDQPMMTQLLLLPLLQQLGQQSRWQLWLTPQQKLSREWVQASGLPLTKVMQISQLSPCHTVESMVRALRTGNYSVVIGWLADDLTEEEHAELVDAANEGNAMGKIMRPVSASSHATRQLSGLKIHSNLYH |
| binds | MBP-SulA^F143H (natural protein, Escherichia coli, UniProt P0AFZ5 1-169, looked up, SulA of Escherichia coli with F143H, cloned in pMal-c2X at EcoRI-BamHI; source: E. coli BL21 (DE3), purified (amylose resin)) MYTSGYAHRSSSFSSAASKIARVSTENTTAGLISEVVYREDQPMMTQLLLLPLLQQLGQQSRWQLWLTPQQKLSREWVQASGLPLTKVMQISQLSPCHTVESMVRALRTGNYSVVIGWLADDLTEEEHAELVDAANEGNAMGHIMRPVSASSHATRQLSGLKIHSNLYH |
